Reference: patent US20060275803A1, “Rat and mouse members of the CRISP family of genes” (Wyeth, priority 2005, published 2006)

Target: T1, rCRISPA (rCRISP1) (Rattus norvegicus, UniProt P12020)
T1 construct: Native rCRISPA (rCRISP1) protein, purified with DANA present; from tissue; host or cells: rat epididymis
T1 sequence (P12020 20-246): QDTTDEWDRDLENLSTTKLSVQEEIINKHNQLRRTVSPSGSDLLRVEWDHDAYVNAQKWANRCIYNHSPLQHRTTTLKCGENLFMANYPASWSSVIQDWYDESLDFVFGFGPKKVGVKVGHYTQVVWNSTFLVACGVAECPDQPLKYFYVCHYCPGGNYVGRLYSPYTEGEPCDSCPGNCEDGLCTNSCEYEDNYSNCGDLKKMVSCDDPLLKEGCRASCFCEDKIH
Test: Protease activity screen: cleavage of substrate peptides by native rCRISPA (+DANA protocol), measured by fluorescence
Assay type: biochemical
Conditions: 5 μM substrate peptide, 1 μg enzyme, 100 mM NaCl, 25 mM Tris-Cl, pH 7.5; fluorescence at ten minute intervals for 130 minutes; FIG. 13
Method: FIG. 13 is a graph showing rCRISPA (rCRISP1) protease activity (assay conditions: 5 μM substrate peptide, 1 μg enzyme, 100 mM NaCl, 25 mM Tris-Cl, pH 7.5). A. Cleaved peptides A04 (RGARARLG), N08 (RKRRAPLA), N12 (AKRAASQI), N17 (RKRRAVLT), B22 (APQRFGKK), B17 (RQRYGKRS), B23 (RVKRYRQS), H03 (RNKRAVQG). B. Cleaved peptides B20 (PQRFGRNT), C16 (RVLGLKAH), J21 (LRNRAQSG), H07 (RVKRQVRS), H11 (RRLLRAIP), N05 (RARRELAP), H01 (RKKRSTKK), O22 (GGVRGPRV), O16 (AATRRQAV), O23 (KNVAMQKG), G24 (RRKRSTRE), A09 (RMRRYADA), M02 (EKQRIIGG), H17 (NGLRADPM). C. Uncleaved peptides L16 (KTPRWGG), N10 (FYRADQPR), B11 (AAGVAPLS), J03 (PQLHSTGG), C01 (GPQGLLGA), K11 (VIPRSGGS), M07 (GLQRALEI), A01 (WQGGRRKF), H02 (RAKRSVHF), A10 (SAARPAPP), M16 (RSRREADL), A05 (SYRKVLGQ), M18 (VHRDMAAR), C23 (RDAQAHPG), M09 (GSQHIRAE), E19 (RLGREGVQ), D06 (ALAEAMKK).
Native rCRISPA (rCRISP1) protein, purified with DANA present (see Example 4), was screened for the ability to cleave 360 unique peptides using the commercially available peptide substrate set (catalog # PrSS-360-75, JPT Peptide Technologies, Springfield, Va.). […] The substrate peptides cleaved by rCRISPA in this assay are represented by blue and green traces noted in FIG. 13. Peptides that were not cleaved by rCRISPA are also noted in FIG. 13.

cleavage of substrate peptide by rCRISPA (rCRISP1) protease activity	Sequence
Cleaved	RKKRSTKK [H01, substrate peptide of the commercial peptide substrate set PrSS-360-75, JPT Peptide Technologies]
Cleaved	EKQRIIGG [M02, substrate peptide of the commercial peptide substrate set PrSS-360-75, JPT Peptide Technologies]
Uncleaved	RLGREGVQ [E19, substrate peptide of the commercial peptide substrate set PrSS-360-75, JPT Peptide Technologies]
Cleaved	RGARARLG [A04, substrate peptide of the commercial peptide substrate set PrSS-360-75, JPT Peptide Technologies]
Cleaved	RKRRAPLA [N08, substrate peptide of the commercial peptide substrate set PrSS-360-75, JPT Peptide Technologies]
Uncleaved	ALAEAMKK [D06, substrate peptide of the commercial peptide substrate set PrSS-360-75, JPT Peptide Technologies]
Cleaved	RVKRYRQS [B23, substrate peptide of the commercial peptide substrate set PrSS-360-75, JPT Peptide Technologies]
Uncleaved	PQLHSTGG [J03, substrate peptide of the commercial peptide substrate set PrSS-360-75, JPT Peptide Technologies]
Cleaved	RARRELAP [N05, substrate peptide of the commercial peptide substrate set PrSS-360-75, JPT Peptide Technologies]
Cleaved	RRKRSTRE [G24, substrate peptide of the commercial peptide substrate set PrSS-360-75, JPT Peptide Technologies]
Uncleaved	GSQHIRAE [M09, substrate peptide of the commercial peptide substrate set PrSS-360-75, JPT Peptide Technologies]
Cleaved	RNKRAVQG [H03, substrate peptide of the commercial peptide substrate set PrSS-360-75, JPT Peptide Technologies]
Uncleaved	FYRADQPR [N10, substrate peptide of the commercial peptide substrate set PrSS-360-75, JPT Peptide Technologies]
Uncleaved	SAARPAPP [A10, substrate peptide of the commercial peptide substrate set PrSS-360-75, JPT Peptide Technologies]
Cleaved	APQRFGKK [B22, substrate peptide of the commercial peptide substrate set PrSS-360-75, JPT Peptide Technologies]
Cleaved	LRNRAQSG [J21, substrate peptide of the commercial peptide substrate set PrSS-360-75, JPT Peptide Technologies]
Uncleaved	VIPRSGGS [K11, substrate peptide of the commercial peptide substrate set PrSS-360-75, JPT Peptide Technologies]
Uncleaved	RAKRSVHF [H02, substrate peptide of the commercial peptide substrate set PrSS-360-75, JPT Peptide Technologies]
